One may read the stoichiometry N as the number of molecules, sites or subunits per partner or assembly.

The text below walks through data of paper PMC12513996 (Nature Communications, 2025).

To fix the notation:
B3: FIP200(1490–1594) (domain or fragment)
chain: SRHSEKIAIRDFQVGDLVLIILDERHDNYVLFTVSPTLYFLHSESLPALDLKPGEGASGASRRPWVLGKVMEKEYCQAKKAQNRFKVPLGTKFYRVKAVSWNKKV
B4: FIP200(1490–1594) of the crystallised FIP200 Claw/ATG16L1 FIR complex (domain or fragment)
chain: SRHSEKIAIRDFQVGDLVLIILDERHDNYVLFTVSPTLYFLHSESLPALDLKPGEGASGASRRPWVLGKVMEKEYCQAKKAQNRFKVPLGTKFYRVKAVSWNKKV

The target of series [1] is B4. The series is described as follows: crystal structure.
Series [2] addresses GST-[…]1 (human, UniProt Q9H0R8 1-117). The series is described as follows: SEC. On the technique in general: Size exclusion chromatography separates by hydrodynamic size, large species first.
For series [3], the target named is ATG16L1(78–247) (human, UniProt Q676U5 78-247). The series can be described thus: SEC-MALS.
Series [4] deals with the molecule itself. The series can be described thus: crystal structure.
The target in series [5] is B3. The series is described as follows: SEC.

Chain of GST-[…]1 (Q9H0R8 whole entry): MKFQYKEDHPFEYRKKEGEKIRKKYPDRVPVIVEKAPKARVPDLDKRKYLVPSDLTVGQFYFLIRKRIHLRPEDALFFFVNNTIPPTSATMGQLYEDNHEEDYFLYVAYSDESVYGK

B1: ATG16L1(235–247) of the crystallised FIP200 Claw/ATG16L1 FIR complex (peptide)
chain: EQDDDIEVIVDET
Regarding B1, the binding result in series [1] is reported as “binds”.

B2: Trx-tagged ATG16L1(78–247) (domain or fragment)
chain: NDNQLQEMAQLRIKHQEELTELHKKRGELAQLVIDLNNQMQRKDREMQMNEAKIAECLQTISDLETECLDLRTKLCDLERANQTLKDEYDALQITFTALEGKLRKTTEENQELVTRWMAEKAQEANRLNAENEKDSRRRQARLQKELAEAAKEPLPVEQDDDIEVIVDET
For the molecule B2, the binding result in series [2] is “binds”.
Take B3: in series [3], the “stoichiometry N” value worked out at 1.
On to B4, for which the “stoichiometry N” value in series [4] was determined as 2.

B5: Trx-tagged ATG16L1 FIR (domain or fragment)
chain: EQDDDIEVIVDET
For B5, the binding result in series [5] was “binds”.
